The target in assay [1] is MtTT8 (Medicago truncatula).
Assay [2] deals with MtWD40-1 (Medicago truncatula).

MtTT8 (Medicago truncatula), sequence (main, as listed by the source): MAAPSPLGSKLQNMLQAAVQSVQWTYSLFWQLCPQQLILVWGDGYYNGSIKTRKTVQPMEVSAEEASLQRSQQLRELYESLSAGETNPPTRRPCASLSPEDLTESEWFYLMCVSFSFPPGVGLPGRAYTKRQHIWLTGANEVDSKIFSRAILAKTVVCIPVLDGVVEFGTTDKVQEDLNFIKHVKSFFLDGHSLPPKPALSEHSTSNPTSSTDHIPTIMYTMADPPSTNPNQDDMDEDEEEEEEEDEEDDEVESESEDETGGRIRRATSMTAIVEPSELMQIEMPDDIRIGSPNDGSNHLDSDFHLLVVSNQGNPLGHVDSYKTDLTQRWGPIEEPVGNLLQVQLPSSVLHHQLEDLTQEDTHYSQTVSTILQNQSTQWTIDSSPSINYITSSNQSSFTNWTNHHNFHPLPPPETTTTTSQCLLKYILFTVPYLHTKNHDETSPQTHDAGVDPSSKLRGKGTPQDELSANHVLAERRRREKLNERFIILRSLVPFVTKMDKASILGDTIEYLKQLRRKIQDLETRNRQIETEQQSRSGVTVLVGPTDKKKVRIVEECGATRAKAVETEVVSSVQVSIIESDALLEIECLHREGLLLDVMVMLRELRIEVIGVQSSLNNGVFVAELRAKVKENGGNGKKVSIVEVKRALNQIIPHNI

Consider “Medicago PROANTHOCYANIDIN REGULATOR (MtPAR) (natural protein)”, for which the ANR promoter::luciferase reporter activity in Arabidopsis leaves co-bombarded with 35S-driven MtPAR, MtTT8 and MtWD40-1 effectors, against empty vector controls in assay [1] and in assay [2] was 9 fold in each case.

Source of the values: PMC5066740.
